Data on 2 molecules can be found in paper PMC3901689, “Leptin-Induced Endothelium-Dependent Vasorelaxation of Peripheral Arteries in Lean and Obese Rats: Role of Nitric Oxide and Hydrogen Sulfide” (PLoS ONE, 2014).

As a reminder, the IC50 is the concentration needed to halve the response being measured. Low readings indicate greater potency in that assay, high ones weaker potency in that assay.

In experiment [1] the target is T1, human leptin binding domain (hLBD) consisting of the amino acids 428-635 of human leptin receptor (human, UniProt P48357 428-635).
T1 chain: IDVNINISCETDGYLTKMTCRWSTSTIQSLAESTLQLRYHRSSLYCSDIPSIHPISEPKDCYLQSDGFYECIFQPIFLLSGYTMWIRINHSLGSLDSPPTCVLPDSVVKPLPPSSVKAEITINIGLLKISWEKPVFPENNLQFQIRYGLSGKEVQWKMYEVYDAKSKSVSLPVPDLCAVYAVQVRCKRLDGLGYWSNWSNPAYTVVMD
Nature of the experiment: ELISA; competition with biotinylated human leptin; given as EC50. On the technique in general: ELISA stands for enzyme-linked immunosorbent assay.

Experiment [2] deals with T2, human leptin binding domain (hLBD) consisting of the amino acids 428-635 of human leptin receptor (human, UniProt P48357 428-635).
T2 sequence (looked up): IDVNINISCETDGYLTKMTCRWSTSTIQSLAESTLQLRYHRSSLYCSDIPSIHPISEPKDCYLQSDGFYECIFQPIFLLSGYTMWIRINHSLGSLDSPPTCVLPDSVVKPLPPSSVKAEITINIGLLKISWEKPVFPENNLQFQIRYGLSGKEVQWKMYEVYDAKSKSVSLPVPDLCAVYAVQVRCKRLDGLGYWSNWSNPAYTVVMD
Nature of the experiment: competitive non-radioactive receptor-binding assay; hLBD immobilized; biotinylated human leptin bound in the presence of the indicated concentrations of SRLA or PEG-SRLA; triplicates. The note with it: both partners purified.

B1: super active rat leptin antagonist (D23L/L39A/D40A/F41A mutant), non-pegylated (ligand)
chain: AVPIHKVQDDTKTLIKTIVTRINLISHTQSVSARQRVTGAAAIPGLHPILSLSKMDQTLAVYQQILTSLPSQNVLQIAHDLENLRDLLHLLAFSKSCSLPQTRGLQKPESLDGVLEASLYSTEVVALSRLQGSLQDILQQLDLSPEC
notes: extra Ala left at the N-terminus from an extra Met-Ala (Met is cleaved by the bacteria); leptin, rat; about 16 kDa by SDS-PAGE; also called SRLA
B1 yielded an IC50 in experiment [1] of 0.977 nM. Also, in experiment [2], the binding result is “binds”.

B2: mono-pegylated super active rat leptin antagonist (D23L/L39A/D40A/F41A mutant) (ligand)
chain: AVPIHKVQDDTKTLIKTIVTRINLISHTQSVSARQRVTGAAAIPGLHPILSLSKMDQTLAVYQQILTSLPSQNVLQIAHDLENLRDLLHLLAFSKSCSLPQTRGLQKPESLDGVLEASLYSTEVVALSRLQGSLQDILQQLDLSPEC
modifications: mono-pegylated (90%, with 10% double pegylated product); site and PEG size not stated
notes: extra Ala left at the N-terminus from an extra Met-Ala (Met is cleaved by the bacteria); leptin, rat; same chain as m1; also called PEG-SRLA; pegylated superactive rat leptin receptor antagonist
On to B2, for which the IC50 in experiment [1] stood at 9.31 nM. The binding result in experiment [2] is “binds”.
